Reference: article PMC4512254

Biological target: all other cases (NTSR1 nanodisc preparations other than WT in 100% POPC nanodiscs)
Assay: radioligand binding

## [3H]NTS ([3,11-tyrosyl-3,5-3H(N)]-neurotensin) (peptide)
  Kd: 0.5 nM
